Results on one substance are retold here after publication doi:10.1101/2024.07.29.605519.

Assay [1] deals with SCRM KiDoK peptide (Arabidopsis). The assay is described as follows: ITC; Malvern PEAQ-ITC, 25 °C, PBS pH 7.4 with 2% DMSO; SCRM KiDoK peptide with MPK6ΔNt (29–305); without kC9. A general note: In ITC the heat of successive injections is recorded.
For assay [2] the target is unchanged. The assay is described as follows: ITC; as a3, but MPK6ΔNt (29–305) pre-incubated with the small molecule kC9.
The target is the same in assay [3]. The assay is described as follows: BLI; Octet Red96; biotinylated SCRM KiDoK peptide (500 nM) loaded on streptavidin probes, MPK6 as analyte (150 nM and two-fold dilutions); 25 °C; 1x PBS, 2 % DMSO, 0.02 % Tween20, 0.1 % BSA; 1:1 model, Kd from steady-state analysis; without kC9. Background: Biolayer interferometry detects binding as a change in optical thickness at a sensor tip.

The target is the same in assay [4]. The assay is described as follows: BLI; as a1, but MPK6 pre-incubated with the small molecule kC9 (MPK6:kC9 1:1.5 in the methods, 1:2 in the legend) as analyte.

Sequence of MPK6ΔNt (29–305) (Q39026 29-305, stated change not applied): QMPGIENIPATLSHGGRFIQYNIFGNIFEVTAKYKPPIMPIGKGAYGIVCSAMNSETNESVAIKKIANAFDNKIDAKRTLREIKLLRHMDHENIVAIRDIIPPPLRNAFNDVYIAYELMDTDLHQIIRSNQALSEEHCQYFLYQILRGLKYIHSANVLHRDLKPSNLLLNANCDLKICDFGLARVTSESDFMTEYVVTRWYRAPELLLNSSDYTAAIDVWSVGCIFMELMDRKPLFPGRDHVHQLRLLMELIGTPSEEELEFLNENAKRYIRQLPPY

Usually Kd stands for the free concentration of one partner at which half of the binding sites on the other are occupied at equilibrium, for simple one-to-one binding. A lower Kd goes with higher affinity. “MPK6ΔNt (29–305) (from UniProt Q39026 29-305) (domain or fragment)”: the Kd is 43.4 nM in assay [1], 1400 nM in assay [2], 40.1 nM in assay [3] and 856 nM in assay [4].
